These results are taken from paper doi:10.1101/2025.09.11.675621, “Effects of Nanopore Confinement on the Conformational, Dynamical, and Self-Assembly Properties of an FG-Repeat Peptide” (bioRxiv, 2025).

Read-outs that look alike come from different tables or passages of the source. Primed or numbered codes have the meaning given here. No end group written: not given here. *: point of attachment. MBPA″ = 4-maleimidobutylphosphonic acid, conjugated to the N-terminal cysteine, O=C1CC(*)C(=O)N1CCCCP(=O)(O)O; MBPA = 4-maleimidobutylphosphonic acid, O=C1CC(*)C(=O)N1CCCCP(=O)(O)O

The nature of series [1]: Aggregation / fibril formation in free solution (TEM, solubility). The class given is physicochemical. The conditions noted are these: 10 mM peptide, Bis-Tris buffer pH 6.5, after six days of incubation at 4° C, 24° C or 37° C. Here is the method: Aggregated MBPA-C-FG30 for transmission electron microscopy (TEM) was prepared by dissolving 2.0 mg of purified and lyophilized MBPA-C-FG30-LSAFTG in 60 μl of 0.2 M Bis-Tris buffer (pH 6.5) to produce a 10 mM peptide solution. The solution was evenly divided into three 20 μl aliquots, each transferred into a 0.2 ml tube. The three tubes were incubated quiescently for 6 days at temperatures of 4° C, 24° C, and 37° C. After incubation, each sample was briefly vortexed, and 3 μl was withdrawn for subsequent TEM imaging, as described below.
Transmission electron microscope (TEM) images were acquired with an FEI Morgagni microscope, operating at 80 kV, and a side-mounted Advantage HR camera (Advanced Microscopy Techniques). TEM grids were lacey carbon on 300 mesh copper (Electron Microscopy Sciences), upon which carbon films were deposited by flotation. Solutions containing aggregated MBPA-C-FG30 were diluted 100-fold in H2O, then adsorbed in 10 μl aliquots to glow-discharged grids for 90 s. Grids were blotted, rinsed with H2O, blotted, rinsed again, blotted, and stained with 2% w/v uranyl acetate for 15 s before final blotting and drying in air.
Figure 5: TEM images of aggregated MBPA-C-FG30, negatively stained with uranyl acetate. […]

For series [2] the following is noted: 4° C; thermodynamic, from 7.1 mM (23 mg/ml) solutions in Bis-Tris buffer pH 6.5 (printed 0.2 mM), incubated four days with brief bath sonication once per day; centrifuged 16,000 x g 15 min, 0.1 μm filter; absorbance at 260 nm, triplicate.
Protocol: After incubation, solutions were centrifuged at 16,000 × g for 15 min, yielding visible pellets at each temperature. Supernatants were then passed through 0.1 μm centrifugal filters (Millipore Ultrafree, 0.5 ml volume) and diluted with H2O by factors of four. Peptide concentrations were determined from absorbance measurements at 260 nm, performed in triplicate, using an extinction coefficient of 1070 M^−1 cm^−1 that was determined from the absorbance of the initial solutions.
Series [3] can be described thus: equilibrium solubility (centrifugation, filtration, absorbance of the supernatant at 260 nm); 7.1 mM solution in Bis-Tris buffer pH 6.5, 4 days at 4 °C with brief daily bath sonication; 16,000 x g 15 min, 0.1 um filter; monomer left over aggregates. The settings on record: other: equilibrium solubility (centrifugation, filtration, absorbance of the supernatant at 260 nm).

Series [4] can be described thus: equilibrium solubility (centrifugation, filtration, absorbance of the supernatant at 260 nm); 7.1 mM solution in Bis-Tris buffer pH 6.5, 4 days at 24 °C with brief daily bath sonication; 16,000 x g 15 min, 0.1 um filter; monomer left over aggregates. The settings on record: other: equilibrium solubility (centrifugation, filtration, absorbance of the supernatant at 260 nm).

The nature of series [5]: equilibrium solubility (centrifugation, filtration, absorbance of the supernatant at 260 nm); 7.1 mM solution in Bis-Tris buffer pH 6.5, 4 days at 40 °C with brief daily bath sonication; 16,000 x g 15 min, 0.1 um filter; monomer left over aggregates. The settings on record: other: equilibrium solubility (centrifugation, filtration, absorbance of the supernatant at 260 nm).

On to “MBPA-C-FG30: C-FG30 with 4-maleimidobutylphosphonic acid conjugated to the N-terminal cysteine (C(MBPA″)FGNNKLTTFGSSTTSAPSFGTTSGGLFGNK-NH2; also: uniform 15N,13C labels at L6, S11, A16, F19, T22, G28 or at G2, G10, G20, G29 (FG30 numbering))”, for which the “morphology of aggregated material (negative-stain TEM)” value in series [1] was “straight, unbranched assemblies”. Also, the equilibrium solubility in series [2] amounted to 4.5 ± 0.2 mM.

B1: MBPA-C-FG30 (peptide)
chain: C(MBPA)FGNNKLTTFGSSTTSAPSFGTTSGGLFGNK-NH2
modifications: also: uniform 15N,13C labels at L6, S11, A16, F19, T22, G28 (LSAFTG) or G2, G10, G20, G29 (4G)
With B1, the equilibrium solubility in series [3] is reported as 4.5 ± 0.2 mM; in series [4], 1.60 ± 0.04 mM; in series [5] it was 1.92 ± 0.08 mM.
